Assay: soluble on expression in E. coli; label from the status in PepcDB or PDB records
For “TRGGDSAAAPLDPPKSTATRCLSCNKKVGVTGFKCRCGSTFCGTHRYPESHECQFDFKGVA”, the “soluble on expression in E. coli” value was “soluble”.
In the case of “MVDEVAKKKSKKEKDKDSKLEKALKAQNDLIWNIKDELKKVCSTNDLKELLIFNKQQVPSGESAILDRVADGMVFGALLPCEECSGQLVFKSDAYYCTGDVTAWTKCMVKTQTPNRKEWVTPKEFREISYLKKLKVKKQDRIFPPETSASVALEHHHHHH”, the “soluble on expression in E. coli” value is reported as “soluble”.
In the case of “MGSDKIHHHHHHMTNETTTSILEYADTHLKFSMEDLFAYLHKKIGINKSSLAWYLFKLVNENKLVRTGRGMYARILKPSFAPQPAEEVKEVYDLLTTHFPFAKFCIYQGEIIAPLQHHLSPNRIIYVETDRGTAETVFHLLKDDYQDVYLRPNKEMIYRYVDMDSRVFIVKNLVSEAPLQHISGVPIPTLEKLLVDILRDVDFFYLQGSESERIIENAFNLYAINRSRLFRYAGRRKVKEELSTILENLNIV”, the “soluble on expression in E. coli” value is reported as “not soluble”.
With “MRFFIALPAHAKRCRRAWRMEFISALPVGFAMNRRGLELRELLPLIPAEKLLIETDAPYLLPRDLTPKPSSRRNEPAHLPHILQRIAHWRGEDAAWLAATTDANVKTLFGIAFLEHHHHHH” the “soluble on expression in E. coli” value was “not soluble”.
In the case of “MRTEKEMIDLIMNTAKEDERIRAVIMNGSRVNPNVKKDCFQDFDIIYAVKDIRSFTSNHNWIHRFGEIMIVQMPEEMSLIPADEDGKFPYLMQFMDGNRIDLTLAPVELINNFVRQDSLSKLLLDKDNCMEGFPPASDKDYLIKKPTEKEFLDCCNEFWWCSTNVAKGLWREELSYVKGMLDGPVRDMLIVMLEWHIGMKTDFIVNAGKFGKHFEKYIEKDMWVQFKRTFSNAEYENIWESFFDMGNLFREVANEIANAYGYPYPQGDDDRVTSYLKHVKALPKDSTSIY”, the “soluble on expression in E. coli” value is reported as “not soluble”.
With “MAHHHHHHMRRTGIRRVAPWVPPPRHDVKVTMPPPPGGEVGGSFGVSIGYSDRIACTPYWKRMALSNYALRMKENATRYPMSEHRPGEYDIRYLPKPYPCTIRNRPLLEVGEPRQIPSIQIPVIFLVNLYNEEKNSWFGRKYETVYVSRQFMREELMPQRYAIYATPEAYALLGLPVVDHGIHKEIPKTPREYEKLLERQKYDEERWKYSIEYLFRKYEAGPPELLDRAEDTWDGTEVLAVSSTAGAARHGEAVQRKGAIKHRKARKIKLF” the “soluble on expression in E. coli” value was “not soluble”.
In the case of “MAHHHHHHMSPAADTTHSTTKPCAPNRSSIPETCSRAPNGTRASAADEVTLLTAPQFAKSTKDTRSTARQQEEQLSDVLVLIRHGERQDHVDRAWKGNALLPLYDPPLSNAGRMQSFETALRYFALRQERKVEKRIRGTFTLFLVSPFHRCIETAAVMNVIAFEGRLPMYVEPFLSDWQQAKVFRTAPVLGGSYTTSGRPSVPGAKGDRLLFRPQVEALRVTLIPFLKTRAAEETELLAEYKIGAEVASAWTTLAEEWLNTHTALPVWTCAAATNVIEAKVASRSDGASDVRATSRKAAKGSQPSPRDASNEGYRGCGVAHPEGKSDLLRRCEQVMSTHFLRCAAVASDTMVPLAIQTAVAAERTTRLPKYFQIWAERPEENRESAGPPALLPPMHIMAITHADVVSTLLEVCCPKYHDKGAGYSVPYCSVTTLQRHNNYYRIPTAEERRRREASASTLAPAQNRGKCYAKKKGNTPSSKNQLMTPIRTRPLSPLSVEWNVEAVGSTDLLRTRIVIQYTK”, the “soluble on expression in E. coli” value is reported as “soluble”.
In the case of “TSALAPVAAIIPPPPDVQPVIDKLAEYVARNGLKFETSVRAKNDQRFEFLQPWHQYNAYYEFKKQFFLQKEGGDSMQAVSAPE”, the “soluble on expression in E. coli” value is reported as “soluble”.
For “MGSVRKASAWLGLVDDNDDERYYDDDYAEGQESGEAWVTDPRVKVASETAEEKGRRIGTVTPDSFRDARGIGELFRDGVPVIINLTAMEPTDAKRVVDFAAGLTFGLRGTIERVATRVFLLTPANTEIVSGEAAGRPTDGFFNQSLEHHHHHH”, the “soluble on expression in E. coli” value was “not soluble”.
In the case of “MATESSSPSSVRKVVVHLRATGGAPILKQSKFKIPGTDKFAKVIDFLRRQLHSDSLFVYVNSAFSPNPDESVIDLYNNFGFDGKLVVNYACSMAWG”, the “soluble on expression in E. coli” value is reported as “not soluble”.
In the case of “MGSDKIHHHHHHMAMEHVDVLIVGAGLSGIGAAYHLQKHCPGKTYAILEGREAIGGTWDLFRYPGIRSDSDMYTLGYSFKPWKAAKAIADGPSILDYVRETAREHDIDRHIRFQHLVKRASWSSETATWTVEAEHDGKPVTLTCRFLHMCSGYYRYSAGYTPDFAGTERFKGRIVHPQHWPEDLDYSGKKVVVIGSGATAVTLVPEMAKTAAHVTMLQRSPTYVVSRPAEDGIANWLRSKLPAMTAYGITRWKNVLFQLFFFNLARKKPEKVKERLLGMVRDHLGPGYDVETHFTPRYNPWDQRLCLVPDADLFDAIKSGAASVVTDHIETFTETGIQLKSGKTLDADVIVTATGLQLQLLSGMEVVVDGKVADLSQSMSYKGMMFSDVPNLASVFGYTNASWTLKADLTSEYVCRLLNHMDRTGADYCVPRLDGEVEAAPWLDFSSGYITRSIGHFPKQGTRKPWKVHQNYALDLMTLRMGKVEDGVMQFGRKTGATAKAKPEKALEPA”, the “soluble on expression in E. coli” value is reported as “not soluble”.
With “MSLNEELIKTGDFAKMCAVTKKALYVYEAKGLLKPAVVKDNGYRYYRLEQVDQVATIRLLEKLGSSLQEVGDFFALKDLNERQKYLGKQQEAVEREMAELGKIKSSLEFFDQRISDLKQTGLKKWRLRLARKNTWKSVLLGMVFREGHHHHHH” the “soluble on expression in E. coli” value was “not soluble”.
With “MPEPHAVLYVTNELSHIVKNEFLPIWKLTGDESLNDLWLENGKYATDVYAYGDVSKWTIRQLRGHGFIFISTHKNVQLADIIKTVDVRVPREVARSHDMKAFENEIGRRRIRMRKGFGDALRNYAFKMAIEFHGSEAETLNDANPRLHKIYGMPEIPPLYMEYAEIGTRFDDEPTDEKLVSMLHYIVYSAEEVHYIGCGDLRTLMQFKKRSPGRFRRVLWHVYDPIAPECSDPNVIVHNIMVDSKKDILKHMNFLKRVERPFIWDVSSDRSQMNDHEWETTRFAEDRLGEEIAYEMGGAFSSALIKHRIPNSKDEYHCISTYLFPQPGADADMYELRNFMRLRGYSHVDRHMHPDASVTKVVSRDVRKMVELYHGRDCGSFLKKRLFEHLHIVRKNGLLHESDEPRADLFYLTNRCNMGLEPSIYEVMKKSVIATAWVGRAPLYDYDDFALPRSTVMLNGSYRDIRILDGNGAILFLMWRYPDIVKKDLTYDPAWAMNFAVSLKEPIPDPPVPDISLCRFIGLRVESSVLRVRNPTLHETADELKRMGLDLSGHLYVTLMSGAYVTDLFWWFKMILDWSAQNREQKLRDLKRSAAEVIEWKEQMAERPWHVRNDLIAALREYKRKMGMREGASIDSWLELLRHL” the “soluble on expression in E. coli” value was “soluble”.
In the case of “MVLSQTHHHHHRHEGNDRSLISILTDPIVNLFRSIPIEILDQNEELSPSQKDFLDDFLELQNDSDLEESEDFIQESQEVVSSVDDEIKVILNEIINQVETETQLIPKIIIHSDDAEVPEESIEIAVQSFGCPLDSFSGLSDSGVDLTVDDVPDDEDDEITVQTFESTPKELPTVTKFTNCTFIRSQSSARCKAILPDTTYICTLPPVSATFSAPVVTPKKIVKRKKSTSAAAKMAAEVLQNEPHCFIAPSSSIDRPFKLLVQKETFLIDAESMSRISPIFNVMCFGKDFEKMDLSREIVDEKSNDIDCFLRAVHDTSMINSSNFALVLRLSNKYQVDPVIDACQNFIIRQHLDVLRADEILTMLIAAFEHHCKREVVQKLIKRLASEGNSVFTKLKISRYLPAQVYGSVISTSMNLNQAKEHELMNGHVLKMERSKIRWRQSVCEECKSVAECANCEECKKTVCRNHVSKLKCSSDYGAKLAADLKKKIVDFEWQD”, the “soluble on expression in E. coli” value is reported as “not soluble”.
With “MSSTKKDIKVYVNYRDEYAEPKIISALKNSGKELTFTNSAKEANFQWAQYEDIDFDEVYKNPKTKLCCSYVIRKALIRKEYLWRTVITYLAKHPDSILSKSVPEAYSLELDYAEFLDDSLMEAYELRQELEENATKNISEKQWYILKPSMCDRAQGIRLFSTIEELQAIFDSFDDEESESEEAGLEEKGDITVAFNNKIVISQIRNFLVQKYISKPLLLDHRKFHIRAYVLATGALSVYLFNEMLCLLARDKYKKPTPDPDLLFSHLSNTCLQGDNVEQSSIRDFWNTSIENKDDIFKSILNIIGDVFEAAATTQGIHFQPLENCFEIFGVDFLVDCESQVYLLEVNSYPDFKQTGKNLSNIIENLFSAVVETAIIPFFESSTKRNVDSKLTLAKKLQLFGFR” the “soluble on expression in E. coli” value was “soluble”.
In the case of “MENAPLLFQLPDDDTLYQALLARDPAYEGFAFVGVKSTGVFCRLTCAARKPKRENTVFFGSIKGCVEAGFRACLRCRPLERAGVQEPWVQTLLEQLGRDPERRWYEDDLVAQGLDPSTVRRAFKRYFGVTFLEMARLRRMGQGMQQLASGEPVIEAQISAGFDSDSGFRHAFSRLAGQPPSNLRGRELLKVDWLQTPIGVMLAVADAQVLHLLEFFDRPALANELQNLQKSSGSSIGFGRFAPIDQIEAELQRYFAGEAVHFATPLAMSASPFTRTVWQALRAIPLGTTCSYAEVARQVGSPSAVRAVARANAANQISIVIACHRVIGADGSLTGYGGGLEHHHHHH”, the “soluble on expression in E. coli” value is reported as “not soluble”.
In the case of “MGSDKIHHHHHHMADNVKANKMNSQADDDIGFGIYTDIADLPMTGCPSYIEEGIGGVCESGTATIVVFDVPFQIVPNVVITLMPWQLVFIKEISEDFRITFFKISKDMFSETLSTLWRPASGFLLYMRKHIVSIPDGELIGRFLAYCNLLVYRMKHTPQNCRQESIMQLLRVYFWDVYTVYINDPQAEKSLKFTRKDEYVYQFVRLIIEDHSPDKDVAYFAQKLGISPKRLTNLIRSISGQSAREWIVYYTILEIKSLLRESSLDIKSIAARVNFPDQTTLSRYFRHYTGVTPSQYRKNIYF”, the “soluble on expression in E. coli” value is reported as “not soluble”.
In the case of “SASMDVEEFIGQNRQLADRVEAFRGFSESDKHWKGRREFIFRNMADFPEPQVDHLLALSMVWQNHVFMGCRYSSELLQRVMEMAEGIEVEDAPVFKTRDEIIRQQKQR”, the “soluble on expression in E. coli” value is reported as “soluble”.
In the case of “MKAVQGDPNWNLVTDTYIEPNNFAELFSLLVPCHPKGEGKERTILVWKEKEFYKEENLAAFIVYGMNKAKKLPQFHKDEIPTLVRILRLCQEIGWYEEANDFMIAQGLAEFVHTSLEYETWDLLTQSVALNYLIIKYRIGELTDRDIEIWDRVKFNEKCITDCKHLLSHKEVLEFTFFYMCKRAKSLSKEQLNSDMMSLAMYCNTFVYDLYTHDLLRKYRKCTDFLSYYGPSQAVLACQRAVLSQISDRLDPLKTTHVDDYLYVMKEMMEHMTIGVMDRYGHFIGKLLSYVPFFEMIQVPQHAYYCEELLYICKGIEYKEETLRNYIFIQLHDCLPSFFRLFLKNKRYATIHDILFYWCDDEQRMSLEKKYNLSFIYEKYACG”, the “soluble on expression in E. coli” value is reported as “not soluble”.
In the case of “MSLEDSTATFETRNMYFNRDFRDGTSAQQSKRDEWAQGFILNFESGYTDGTVGFGLDALGMLGIKLDSSPDRTDSGLLPTHDDGKAADEYSKLGLTGKVKISQTELKIGTLIPELPTLQPNDGRILPQTFEGGLLTSKEIKGLTFTGGRIDKAKDRNDTNWEDLALNNKNGRFGGTFSADNLALGGLDYQFTDRITGSYHFAQLDDIYRQHFIGMVATQPWGPGTLGADLRLAMSDDAGAAKAGNIDNTTVNGMLSYALGGHKVSAAWQQLSGESAFPYVDGADPYLVNFVQINDFAGADERSWQARYDYNFAALGVPGLTFMTRYISGDNVSRAAGGEGKEWERNTELKYVVQSGPLKNVAVRLRNATFRSNFARDADEVRLLVSYSVALWEGHHHHHH”, the “soluble on expression in E. coli” value is reported as “soluble”.
For “MSIRRSDPLAQVSDFDIRLLRIFKSVVEAGGFSAAESALGIGRSAISQQMSDLEQRLGLRLCQRGRAGFSLTDEGREVYQSSLQLLSALESFRTEVNGLHQNLRGELNIGLTDNLVTLPHMRITHALSRLKERGPGVHINIRMIAPAEVEQGVLDGGLHVGVVPQASALPGLEYHSLYSERSLLYCAVGHPLFYAENTMLDDQRLALQEAVAPTFRLPNDIQEHYKALTCTASASDREGIAFLILTGRYIGYLPDHYANAWVQEGRLRALKPDAKFYDLNLVTVTRKGRRPHLVLEGFLEALAATR”, the “soluble on expression in E. coli” value was “not soluble”.
